The source of these data is article PMC9413830.

In general, pKa refers to the negative logarithm of the acid dissociation constant.

This data set concerns Lys1 (position 1, -----K-----). Kind of data set: potentiometry. To be noted: No added salt; only the amphiphile counterions and the added NaOH; none (ultrapure water); 4 mM amphiphile, self-assembled; the assembly morphology changes with pH during the titration.
Turning to “C12-K (lysine amphiphile with a C12 alkyl tail) (synthetic)”, the pKa turned out to be 8.69.

As for “C14-K (lysine amphiphile with a C14 alkyl tail) (synthetic)”, the pKa stood at 8.01.

Regarding “C16-K (lysine amphiphile with a C16 alkyl tail; L enantiomer titrated) (synthetic)”, the pKa is 7.66.
